# Literature values, collected in US11414673B2, “Hypersensitive ABA receptors having modified PP2C-binding interfaces” (THE REGENTS OF THE UNIVERSITY OF CALIFORNIA, priority 2017, dated 2022).
# B1: PYL4^A194T: PYL4 ABA receptor with A194T mutation in its carboxyl terminus, described by Pizzio et al. (protein, UniProt O80920 1-207, looked up, variant A194T)
# Abscisic acid receptor PYL4: MLAVHRPSSAVSDGDSVQIPMMIASFQKRFPSLSRDSTAARFHTHEVGPNQCCSAVIQEISAPISTVWSVVRRFDNPQAYKHFLKSCSVIGGDGDNVGSLRQVHVVSGLPAASSTERLDILDDERHVISFSVVGGDHRLSNYRSVTTLHPSPISGTVVVESYVVDVPPGNTKEETCDFVDVIVRCNLQSLAKITENTAAESKKKMSL
# System: ABA responses
# Details: Pizzio et al., Plant Physiol. 163, 441-455 (2013)
molecule,measurement,value
B1,"ABA concentration needed to elicit measured ABA responses, in comparison to wild type PYL4",requires lower concentrations of ABA
